A short description of this series: label from the status in PepcDB records.

These results are taken from a protein production outcome set (Wang et al. 2014).

As to “MIFSPDAFTGSILAVEGIRDAAVILNGPTGCKLYHSFLSDRQFPRESSHDPLAFQDEFYFGQPRVPCTCLDGEDFIQGSLEKFERALAAVAAKEKGLLVVINSPGASLVGDDLENVIKNAGLQNRCFVVEKTGFSLPAAQGFENTTLTLLEHLKLRSLFRPHNRSEFPKKVNLIGLSLLHKHWEGSVAEMKRLLSFLGLEVGAILLAGTSLDEIRESNNAACNIVLFPEYGRRVAEWYRKHFGIPAVFSPLGAPLGFDANESLLREVAAILNIDPAPALAEVREARQTSYRQISRFHSFSGLPKGASFSIQAESSLVFPLTHWLYSYLGMAPYAVKLLPGSDPEMARSLKSFLTEKGFCEAWDRDLSLESVDIAFADSFTLQLLKAKGCCKAGIEISLPDRGYIHFIPKTYLGVSGALFLLEEIINGLRST”, the protein production result is recorded as “failed”.
Under “MIFSSPSQKNHPVGGLEEVMAQGTFVQALRKEAALSSTFMKGRSLMLNGAVLSIEDSGSRFSKNVTLEGAVRGSRGDLYKTHVALDMDEHEVIDYDCDCPAAYRYPGMCKHAIATALAYLDASGIEPVEGLRTPVRTFTAAPKQAARPSSAAPAVNPNFPFPAPVPTSPSLMKALSDLSDARMDELAGMRRKLAGTVDPDAPKAVLEPSLVPYYNPLFADRFSWALELRIRCGSVSYVVKDIDGMAAAYVRGGTFSYGKKLTFLHAPEAFDEVSVRLLDLVVATVVYLSDITSSRSASYDFARSGFVAERQLPLSEHDIVYMLDLLRGRTISFEPAWSRGTTTHRSYEVAVELSPVGEDEASAKQPPLLAAKIAPAAGGSYDLRLPADTYCFVAGDAAYLVDTHRARRADAAFAQHAAPFLSRLLPCRTPVHIAAEQVGEFCRMALPVLREYTGLTAPAVLDTVAPEPSFAMAIGVDDGLVTCKITVSYGDWSADLFSLGAPGSPFEERRPGVPPRDEMAEFRVMDTAALYFDFYEGGLAFEERDDESLFHLLTEGLSALSELGEVMLSDRLRQVSVRPAPKLSVRATVKSNLLDVELGASGLSAADLAIYLDSYKRHQTFARLTSGDIIRLDEGARAAFGLAEDLGVDAVDLLDGVSLPASSTLFVDSMLARTPELEADRDAAFRRTVERLDTLGKMDFTVPVSLKATLRGYQVDGYQWLGSLEHLGLGGILADDMGLGKTLQMIAHILARVEAGDAKPTLVVCPASLVYNWTAELERFAPSLDVCAIVGAKAQRRVQIAGADEHNVVITSYDLMRRDIDEYAEQDFARVVLDEAQYIKNPLTQVAHAAKRLPAGVRFALTGTPIENRLSELWSIFDFLMPGLLGSRESFAKRFESPVEHAEGDSAARLQALVSPFVLRRVKEDVVADLPEKIEDTVMAQLTGEQRKLYLANQDRIAQQVQHREVSEFKKDKLKVLAELTKLRQICCDPHLHYEDYKAGSAKLDACMELVHGALDGGHHILLFSQFTGMLDIIGKRLAKEDIGFLKLTGASSKESRAKMVAQFQAGEVPVFLISLKAGGVGLNLTAADVVIHYDPWWNVAAQDQATDRAHRIGQQHTVTVYKLIAKDTIEERIMRMQESKRDLVNSVLGGDGISSALFTREDVLALLGGDGR” stands “failed”; under “MIFYFSGTGNSAWVARQLAEGQNEELLSIAMEIDRNKAYKLKEGEKVGFVFPVYAWGPPKIVLRFIHQLKLDKPGYLFFVCTCGDDTGRTAQIFSSAVTRKGWQCVAGYSVTMPNTYVSLPGFDVDDKDIETQKVQNAVARVRFINEEITSRAQMKQYNCHEGALPFTKSYLLRPLFNAFLMSPKPFHTTEACIGCKKCEKVCPVGNITVTDRPVWGGNCTQCLACYHVCPVHAVEYGKMTGKKGQYKGRLLKDL”, “failed”; under “MIGDLDISGVFLPTLLVLMGITYGLYLLVHGVLTRLHFYRLVWHRALFNVGLYALLLGAVDSLSRYLMT”, “failed”.
As for “MIGDMNELLLKSVEVLPPLPDTVSKLRKYVSEANSNIETMKVAEIISSDPLMTAKLLQLANSPYYGFTREITTINQVITLLGVGNIINIVMADSIRDNFKIDVSPYGLNTQNFLKTCNEEATFIANWLNDEDKKLSHLLVPCAMLLRLGIVIFSNFLIQNHKDKDFLAFLNKNENLALAENEFLGVDHISFLGFLLHRWNFDDVLIESICFVRTPHAAREKVKKSAYALAITDHLFAPHDGSSPFNAKAAVALLKEAKTQGINFDLNNLLSKLPNKAKENLNKED”, the protein production entry is given as “not failed”.
Under “MIGFLILLFIFVAGFFIMQMLIYRFAKKNIHKYTKIKWFHMWLHMNMKKGPRLDFFDFVVTVLVCIVWKIWLLPFI” stands “failed”.
“MIGHNSPTRTAPLISVTTLDKVALSRLGRDVAVRNRKSRAVLAYLALSPHGFETRERICGLLWSESDEARARASLRQTVVDLKACLAEIEGVFSGDRLNVTLKPSLVTVDVGEIRHELKAGRIPPILLERQRVAESFLNGLDDIDPSFRNWVLVQRQCLQDEFISCLEAMAKAAADWPALKRAGQALLNLDPTNEIGCRAVMEASARMGDQATALRAYKGLWDLLETEFDSEPSAATQALVSDIKLGTIGATDRGAVTAIAAEAFGSQAQRLQEPAAGVLLFVREFELVSGSVRARNAVQIFRSELVASLVRFRDWAVMEWEGHPPRFTENAYCIEATGFIDGPTLRLSMTLKQLASGRYIWSEQFVIENSQWYQTQQRLIRRIAVALGVSMSSERLVQIASIPDLSLEQFDRWLRAQELIFQWRPESEERAEALFRSIIAESPRFAAAYAGLAGIINSRHLIFPGIGRRRERHAEALTFAKQATQIDPIDSRSQLHLAWSYAMNGIPQQAAISFLLACELNGNDPWTLVSASLGLAYCDDRENARRIATLALQTGLGVSRLQWSYQAGVRFLLGDYAGCVEAAERAADSVSYIGGWKAAALALLGNEKAAHEEADRFLAQLKTTWFGNESPEPGNVGTWLMDSFPIYSPEAVEALRRGLAGAGIVVSHMPLPEPVLSAAPDGVVRDA”: the protein production entry is given as “failed”.
With “MIGIVMLSKIANIDAARQGLDLKVKVLSLNKKTIKNDRGETTYFYGIIGDDTGTVSFTAWSFPAAVKSGDVVEIKNCYSSLYNGKIRIYVDSRSQVVLKPDEYLEVKRTVELVKLRDLSLTTPYVSVIGRISGIKEKNYDSDRGSKIVYQGFIEDETAKVRISSFGKPLKDGEIVRVENARVSQYNGYMGISIGENSSIDNVQAQIEVGSRPIFIAEIKSPIGGVTITGFAVSVGQGSRIFTKCSICKKILEDGKCKDHPRAPVYLDIFGYFLLSDGTGSLTCYLNKDSFLPYIKMDTEEFKSQAFSMNPNMLIKKNILGKCLSVTGDLRLRDDKITMNASSIKEADADSVKDIEKTIQEEFQLEHHHHHH”, the protein production entry was “failed”.
Turning to “MIGKHFIITGATSGLGFAITNELLQRGAHVTILARNIDKFNRIKENYFKPEHINVIKCDLMQRKDIESLQKFLNTPINGFIYSSGVGYFKSISEHSTREVVETYEVNLTNFNLLYKVIQPQLVKAAYIVGISSQAALVSQANAAHYGASKAGFSAVLNALRLEQPELKVLNVQPGPIDTPFQKNADPTLKYFKNYRHMMIQPQQLAKQIVEGIILNKIEINQPSWMQIMLKFYQLCPRTLEKLCPNLFKNKV”, the protein production entry is on record as “failed”.
As for “MIHLVSLLALAFAVSLDSFGVGLTYGLRKMKIPFKSLLFIAGCSAVSILIAMGFGMTIQQYLSPAIAESLGGIILILIGCWALYQAFRPAKNGHKTKDDHVILNFEIKMLGVVIRILRKPMVADFDNSGAITGREAVILGIALSLDAFGAGIGAALIGFHPLYMAVSVAVMSALFVSLGMKSGYRFADSYWIKRFSFIPGLLLVLIGVFNLMM”, the protein production entry is given as “failed”.
For “MIHSRTILVPTLLFQLALALPLAAGADSRCDDAKRLAATIPVQADGDTTRKTEDVVLESCADGAAGYFVRGLRAERAGRHDEAIKDYREALRLEPAFPRAQGNLGLALLAKGSHDDAVVELTRAISSDPDPGYHHGLAMIFGQRKIYSLALYHYAEAAKGLPADPVIPTELAALYREMGKVSDAEKQYRKALSLSPSHEEARVGLASLYMAEGRTDRAIEELKQAQIASPGNKEVSSLLAEAYEKKGDRQAADYQSLLAGKQRGVLSDERLRRGDELMQAKEYAKAAEEFKAALREKPDWPEALMRLAEAQTAAGFDDEAITSYKELIRLKLGTGDTHYNLGVLYERKGLIDEAVVEYKQAIHSSPDNGDARRRLADIYALRGSYPQAIEQYRELLKKGDNNPVLHLKLARALLGAKNPKEAMASYQDALKIAPDNLEARRELAALYRKGNQNEEAEKQYKEILRIKKDDAEARNILTALYVKSKKYDELITLLKDGVELAPNDPASHYKLGLIYEFKKDYDAAEQEYKKAVELKGDHAKSLNALGRIYLKTGKISEAKGALEAAKKADPGMEETAVLLSNIKEELSPEPPRYSKKGRKGKASKEAKKSRASKKKSSKKGAKATSKKSSTKSGGKAKKAKKSH”, the protein production result was “failed”.
The entry for “MIIADNIKQFHSIRNSLIKQQKIGFVPTMGALHNGHISLIKKAKSENDVVIVSIFVNPTQFNNPNDYQTYPNQLQQDIQILASLDVDVLFNPSEKDIYPDGNLLRIEPKLEIANILEGKSRPGHFSGMLTVVLKLLQITKPNNLYLGEKDYQQVMLIKQLVKDFFINTKIIVCPTQRQPSGLPLSSRNKNLTSTDIEIANKIYEILRQDDFSNLEELTNKINSTGAKLQYIQKLNNRIFLAFYIGKVRLIDNFLKETGPSC” is “not failed”; for “MIIDTPLADRYPHAMKNQDESGDGWESLCERCGLCCFEKIEDENGTVFFTATPCRYLDVTTRQCVIYDKRFDINPECVKLTEELVRTLPWLHDDCAYRKALGVRLSKVRMNGRNKGKRG” it is “failed”; for “MIIEGPVIKFGDKIDTDIIIPARYLKYTDPQYLAQHVMEPLDPEFYKKASKGVIIVAGKVFGMGSSREQAAIALKAAGVKAVVAESFARIFYRNAINNGLPVITLPNSTKEIDENSYVKIDVETGEILVGNKVLKGKGITGMALEILQAGGIMEYLKKMQTVNRN” it is “failed”.
Under “MIIEYNKLGTILYSRISHKQLYNIFHYSYHEVRLLVYNKYLPIPKQFNDEFWTVEKVEHIRYLSLTGKPYKIFNEDMNSLRVLDKVRFKLDKATSISLTPKANLELEFSGIYMKSPLYLGDMSYGALSGNPNIAIATAADLTETLAGTGEGGLHPEVAKHKRIFVQWASARFGVDIRVLTAGMGVVIKIGQGAKPGIGGHLPGNKVTEPISLTRRIPIGIDAISPAPHHDIYSIEDLGQRIEALKEATGRPVFVKVAATNYIPYIVSGIARMGADGVIIDGHGAGTGATPVVIRDNVGIPIELAIASADKILRREGLRDKFTIIAAGRVSSATDAAKLFALGADIVSVGTGALIAMGCVMVHKCHVGSCPTGLTAKIDGTRVVDTEFGVKMLVNFINGFSLELANILDNLGLNNIRELRGRRDLLYGHGLSKDTLETLGIDGTEDEANPKLGELWNRRIIAYMHELMNKGNPVITSMGSTAPPDVEKPARIIDWLRSDGAQVTRPSIDPYREDVDTSFYLKGGEIYLSLPIIFDITEAPLEYKEAFSWSALALSSAVFDYETIDKYAEVFISSDGRGIARWSRNEIYENSYLLIPADENVIDEVIGMGVQGFIIDEDSGNSDLELVVSALDTKLKEVGVRNHYDILAKSSRLRHSADAFKLILLGADSVIMPYFILEKAIGEGNKGNLKEKAFSLITGMKKEIALLAGAAGVYSVQSTLTGNRELLRSINLNHSIRKALRIKPAGSL” stands “failed”.
On to “MIIGIDVGGTNTDAAIVSDEIKTIKLPNEAGIGGILKEISKEANLIEEKVVVSTSWPLNLIISKFSESRTLSLVIPGPGLNYSEYGEVLKGYVNHRGDVVEDIDEYEIAAIFRENSYDNVAISSKFSVRNGSLEDRVAEIVRNYV”, for which the protein production entry is recorded as “failed”.
The entry for “MIIGNCLILKDFSSEPFWGAVEIENGTIKRVLQGEVKVDLDLSGKLVMPALFNTHTHAPMTLLRGVAEDLSFEEWLFSKVLPIEDRLTEKMAYYGTILAQMEMARHGIAGFVDMYFHEEWIAKAVRDFGMRALLTRGLVDSNGDDGGRLEENLKLYNEWNGFEGRIFVGFGPHSPYLCSEEYLKRVFDTAKSLNAPVTIHLYETSKEEYDLEDILNIGLKEVKTIAAHCVHLPERYFGVLKDIPFFVSHNPASNLKLGNGIAPVQRMIEHGMKVTLGTDGAASNNSLNLFFEMRLASLLQKAQNPRNLDVNTCLKMVTYDGAQAMGFKSGKIEEGWNADLVVIDLDLPEMFPVQNIKNHLVHAFSGEVFATMVAGKWIYFDGEYPTIDSEEVKRELARIEKELYSS” is “not failed”.
